{
  "source": "patent US8329186B2",
  "about": "“Treatment of inflammation using BST2 inhibitor” (Isu Abxis Co., Ltd, priority 2004, dated 2012)",
  "molecules": {"B1": {"name": "Bst2 decoy: soluble Bst2 protein fragment having the amino acid sequence of SEQ ID NO:1; extracellular region of human Bst2, six-histidine tag (protein)", "chain": "NSEACRDGLRAVMECRNVTHLLQQELTEAQKGFQDVEAQAATCNHTVMALMASLDAEKAQGQKKVEELEGEITTLNHKLQDASAEVERLRRENQVLSVRIADKKYYPSSQDHHHHHH"}},
  "key": {"[1]": {"tested_on": "TNCB-induced contact hypersensitivity", "assay": "TNCB-induced contact hypersensitivity in mice", "assay_type": "in vivo, Balb/c mice", "experimental": "To evaluate efficacy of Bst2 decoy on allergic dermatitis, contact hypersensitivity was induced by repeated application of 2,4,6-trinitro-1-chlorobenzene (TNCB) in Balb/c mice. The mice were initially sensitized with 0.2 ml of 1% TNCB solution on day 0, Subsequent challenges of 0.2 ml of 0.2% TNCB solution was applied to the shaved backs of the animals 2-3 times per week from week 2 to week 6. By the end of week 6, all animal developed lesions on the dorsal skin treated with TNCB solution (FIGS. 40A-40C).\nDuring week 7, 5 daily doses of Bst2 decoy were administered at 10 mg/kg to the animals by intravenous injection, and the animals were sacrificed for observation at the end of week 7.\nH&E staining was performed on exposed skin sections."}, "Jurkat cells": {"tested_on": "Jurkat cells", "assay": "Homotypic aggregation of Jurkat T cells activated with anti-CD3", "assay_type": "cell-based, human", "conditions": "pretreatment 30 min before activation with anti-CD3", "experimental": "When Jurkat cells (5×10^5 cells/ml) were incubated with anti-CD3 monoclonal antibody (OKT3: 10 μg/ml, BD Pharmingen) at 4° C. for 20 min and then with anti-mouse immunoglobulin polyclonal antibody (25 μg/ml, Zymed) 37° C. for 1 hr, cell aggregation occurred, and the cells were activated and induced to produce interleukin-2 (IL-2) (FIGS. 10 and 11). According to the same method, when green fluorescent protein (GFP) overexpression was induced, there was no effect. In contrast, when Jurkat cells were transfected with a Bst2-overexpressing vector and were induced to activate, homotypic cell aggregation increased (FIG. 10, panel A). IL-2 mRNA levels upon T cell activation were measured by real-time RT-PCR (Example 3). IL-2 mRNA expression was elevated by about two times under Bst2 overexpression in comparison with GFP overexpression (FIG. 10, panel B).\nJurkat cells were pretreated with a Bst2 decoy 30 min before activation, were activated using anti-CD3 monoclonal antibody, and were evaluated for inhibition of cell aggregation. The cells were treated with a relative amount of serial dilutions of an animal cell culture fluid containing a Bst2 decoy. The size of aggregates was represented as a ratio to the size of aggregates of a non-treatment group."}, "CLP sepsis": {"tested_on": "CLP sepsis", "assay": "CLP sepsis model: tissue and organ damage", "assay_type": "in vivo, rat", "description": "A rat model of sepsis was induced through cecal ligation and puncture (CLP) as described previously (Wichterman K A, Baue A E, Chaudry I H: Sepsis and septic shock-a review of laboratory models and a proposal. J Surg Res 29:189-201, 1980). An incision was made along the midline of the abdomen on an anesthetized animal. The cecum was exteriorized, ligated and punctured with a stainless steel needle. An appropriate amount of fecal matter was then extruded. The gauge of the needle, number of punctures and amount of fecal matter extruded are all factors in determining the severity of sepsis and mortality. […] The incision was sutured and appropriate post-operative care was administered. Sham-operated animals were subjected to similar laparotomy and intestinal manipulation, however, the cecum was neither ligated nor punctured. Immediately or 6 hours after the CLP procedure, animals were given intravenous injection of vehicle or a Bst2 decoy.\nBlood enzyme levels were measured at 6, 12, and 24 hours post-CLP (FIG. 49A-49D). Organ damage, as indicated by increased levels of alanine aminotransferase (ALT), aspartate aminotransferase (AST), blood urea nitrogen (BUN) and creatinine, was evident in all animals that underwent the CLP procedure."}, "mouse model of asthma": {"tested_on": "mouse model of asthma", "assay": "Ovalbumin-induced mouse model of asthma: infiltrating cells in bronchoalveolar lavage", "assay_type": "in vivo", "conditions": "ovalbumin-sensitized mice", "experimental": "(§1) A mouse model of asthma was prepared by sensitizing mice (C57B6, 8 weeks) with ovalbumin. In detail, mice were initially sensitized for five continuous days by intranasal injection of ovalbumin. After three weeks, mice were intranasally sensitized again with ovalbumin for five continuous days. One week after the secondary sensitization, mice were challenged intranasally with ovalbumin three times every 24 hrs to induce asthma. Herein, a Bst2 decoy was intravenously injected into mice 30 min before sensitization with ovalbumin, and was injected into mice 30 min before the first sensitization and the last injection of ovalbumin. Three days after the last injection, serum samples, lung tissues, and the like were collected from mice.\nA mouse model of asthma was prepared as described in Example 8-1.\nThe effect of Bst2 decoy-Fc fusions on immune cell infiltration was assessed as described in Example 8-2. When ovalbumin-sensitized mice were treated with a Bst2 decoy, the total number of infiltrating cells was decreased and, especially, the number of neutrophils, eosinophils and lymphocytes except for macrophage was decreased in bronchoalveolar lavage (BAL) (FIG. 27).\nA mouse model of asthma was prepared as described in Example 8-1. The effect of anti-Bst2/Damp1 antibodies on immune cell infiltration was assessed as described in Example 8-2. […]"}, "IL-4, IL-5 and IL-13": {"tested_on": "IL-4, IL-5 and IL-13", "assay": "Ovalbumin-induced mouse model of asthma: cytokines in lung tissue (immunoblot)", "assay_type": "in vivo", "conditions": "ovalbumin-sensitized asthmatic mice", "experimental": "as §1\nWhen a Bst2 or Damp1 decoy was injected into a mouse model of asthma which was induced by sensitization and challenge with ovalbumin, expression levels of cytokines (interleukin-4 (IL-4), interleukin-5 (IL-5) and interleukin-13 (IL-13)) were measured as follows. […] The bound primary antibodies were detected with a HRP-conjugated secondary antibody (anti-rabbit HRP-conjugated IgG) using ECL reagent.\nExpression of 11-4, IL-5 and IL-13 was measured in the murine asthma model as described in Example 8-3 after injection with Bst2 decoy or Bst2 decoy Fc fusion proteins."}},
  "data": [
    {"molecule": "B1", "values": [
      {"measurement": "recovery from TNCB-induced skin lesions", "setting": "[1]; 10 mg/kg intravenous, 5 daily doses during week 7, vs vehicle alone", "result": "recovered much quicker"},
      {"measurement": "H&E staining of exposed skin sections", "setting": "[1]; TNCB-treated mice", "result": "near-normal morphology with little signs of inflammation"},
      {"measurement": "aggregation of Jurkat cells", "setting": "Jurkat cells", "result": "significant decrease"},
      {"measurement": "blood levels of ALT, AST, BUN and creatinine", "setting": "CLP sepsis; 6, 12 and 24 hours post-CLP", "result": "near-normal level"},
      {"measurement": "H&E staining of liver, kidney and lung sections", "setting": "CLP sepsis; 24 post-CLP", "result": "protective effects against organ damage"},
      {"measurement": "number of infiltrating cells in bronchoalveolar lavage (total, neutrophils, eosinophils, lymphocytes)", "setting": "mouse model of asthma", "result": "remarkably decreased"},
      {"measurement": "cytokine levels (IL-4, IL-5, IL-13) in lung tissue", "setting": "IL-4, IL-5 and IL-13", "result": "decreased with increasing doses"}
    ]}
  ]
}
